Molecular target: T1, PAPAP protein (human)
T1 construct: Identified by expression cloning; COS-1 cells transfected with the cDNA clone were stained by the AP fusion probe; also called PAPAP polypeptide; PAPAP gene product
Assay: in situ receptor binding assay: AP staining of COS-1 cells transfected with human brain cDNA pools, incubated with PAP-AP fusion medium
Experimental: Plasmid DNA was obtained from pools of ˜1000 colonies using the QiaPrep Spin Miniprep kit (Qiagen). These pools of DNA were then transiently transfected into COS-1 cells as follows. Two micrograms of DNA from each pool of human brain cDNAs was diluted into 200 ul of serum-free medium (DMEM medium from Gibco-BRL with no additives). The DNA was complexed to the PLUS reagent by adding 12 ul of (mixed prior to use) PLUS reagent to the DNA in serum-free medium. 200 ul of the DNA-PLUS-Lipofectamine reagent complexes was added to wells containing Cos-1 cells plated at 0.25×10⁵ cells per well in 6 well dishes (35 mm) the day prior to transfection (in complete medium containing no antibiotics). Previous to the addition of the DNA/lipofectamine/PLUS complex, the complete medium was removed from the cells and replaced with 800 ul serum-free medium. Cells were incubated at 37 degrees C. at 5% CO₂ for 3 hours; then the medium in each well was replaced with 2 ml of complete medium.
Two days after transfection, cell staining was begun. Culture medium was removed from cells in the 6 well dishes. […]

T1 sequence (chain, as listed by the source limits assumed): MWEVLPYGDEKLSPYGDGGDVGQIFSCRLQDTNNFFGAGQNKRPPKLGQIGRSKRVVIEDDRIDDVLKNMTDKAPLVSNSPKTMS

binding result: binds
B1: g34872 peptide-alkaline phosphatase fusion protein (other)
chain: DAAQPARRARRTYEAYQPLERMWTCNYNQQKDQSCNHKEITSTKAERRSSGIIPVEEENPDFWNREAAEALGAAKKLQPAQTAAKNLIIFLGDGMGVSTVTAARILKGQKKDKLGPEIPLAMDRFPYVALSKTYNVDKHVPDSGATATAYLCGVKGNFQTIGLSAAARFNQCNTTRGNEVISVMNRAKKAGKSVGVVTTTRVQHASPAGTYAHTVNRNWYSDADVPASARQEGCQDIATQLISNMDIDVILGGGRKYMFPMGTPDPEYPDDYSQGGTRLDGKNLVQEWLAKRQGARYVWNRTELMQASLDPSVTHLMGLFEPGDMKYEIHRDSTLDPSLMEMTEAALRLLSRNPRGFFLFVEGGRIDHGHHESRAYRALTETIMFDDAIERAGQLTSEEDTLSLVTADHSHVFSFGGYPLRGSSIFGLAPGKARDRKAYTVLLYGNGPGYVLKDGARPDVTESESGSPEYRQQSAVPLDEETHAGEDVAVFARGPQAHLVHGVQEQTFIAHVMAFAACLEPYTACDLAPPAGTTDAAHPGYLEEALSLEGPEQKLISEEDLNSAVDHHHHHH
notes: Used as conditioned medium from stably transfected 293T cells; The vector has a secretion signal upstream of the insert; also called PAP-AP fusion protein; AP fusion protein
